The chains are these.
B1: CAR123-3 (scFv, V domains shown)
VH: QVQLVQSGAEVKKPGASVKVSCKASGYIFTGYYIHWVRQAPGQGLEWMGWINPNSGGTNYAQKFQGRVTMTRDTSISTAYMELSGLRSDDPAVYYCARDMNILATVPFDIWGQGTLVTVSS
VL: DIQLTQSPSSLSASVGDRVTITCRASQSISSYLNWYQQKPGKAPKLLIYAASSLQSGVPSRFSGSGSGTDFTLTVNSLQPEDFATYYCQQGDSVPLTFGGGTKVEIK
B2: CAR123-4 (scFv, V domains shown)
VH: QVQLQQSGAEVKKSGASVKVSCKASGYTFTDYYMHWLRQAPGQGLEWMGWINPNSGDTNYAQKFQGRVTLTRDTSISTVYMELSRLRSDDTAVYYCARDMNILATVPFDIWGQGTMVTVSS
VL: DIQMTQSPSSLSASVGDRVTITCRASQSISSYLNWYQQKPGKAPKLLIYAASSLQSGVPSRFSGSGSGTDFTLTISSLQPEDFATYYCQQGDSVPLTFGGGTKVEIK
B3: CAR22-64 (scFv)
scFv: EVQLQQSGPGLVKPSQTLPLTCAISGDSVLSNSDTWNWIRQSPSRGLEWLGRTYHRSTWYDDYASSVRGRVSINVDTSKNQYSLQLNAVTPEDTGVYYCARVRLQDGNSWSDAFDVWGQGTMVTVSSGGGGSGGGGSGGGGPQSALTQPASASGSPGQSVTISCTGTSSDVGGYNYVSWYQQHPGKAPKLMIYDVSNRPSGVSNRFSGSKSGNTASLTISGLQAEDEADYYCSSYTSSSTLYVFGTGTQLTVL
notes: also called CD22-64
B4: CAR22-65 (scFv)
scFv: EVQLQQSGPGLVKPSQTLSLTCAISGDSMLSNSDTWNWIRQSPSRGLEWLGRTYHRSTWYDDYASSVRGRVSINVDTSKNQYSLQLNAVTPEDTGVYYCARVRLQDGNSWSDAFDVWGQGTMVTVSSGGGGSGGGGSGGGGSQSALTQPASASGSPGQSVTISCTGTSSDVGGYNYVSWYQQHPGKAPKLMIYDVSNRPSGVSNRFSGSKSGNTASLTISGLQAEDEADYYCSSYTSSSTLYVFGTGTQLTVL
notes: also called CD22-65
B5: CAR 22-57 (scFv)
scFv: EVQLQQSGPGLVKPSQTLSLTCAISGDSVSNNNAAWNWIRQSPSRGLEWLGRTYHRSTWYNDYVGSVKSRITINPDTSKNQFSLQLNSVTPEDTAVYYCARETDYGDYGAFDIWGQGTTVTVSSGGGGSGGGGSGGGGSQSALTQPASVSGSPGQSITISCTGSRNDIGAYESVSWYQQHPGNAPKLIIHGVNNRPSGVFDRFSVSQSGNTASLTISGLQAEDEADYYCSSHTTTSTLYVFGTGTKVTVLG
notes: scFv domain of a CAR expressed on JNL cells; also called CD22-57
B6: CAR22-58 (scFv)
scFv: EVQLQQSGPGLVNPSQTLSITCAISGDSVSSNSAAWNWIRQSPSRGLEWLGRTFYRSKWYNDYAVSVKGRITISPDTSKNQFSLQLNSVTPEDTAVYYCAGGDYYYGLDVWGQGTTVTVSSGGGGSGGGGSGGGGSQSALTQPASVSGSPGQSITISCTGSSSDVGGYNSVSWYQQHPGKAPKLMIYEVINRPSGVSHRFSGSKSGNTASLTISGLQAEDEADYYCSSYTSSSTYVFGTGTKVTVLG
notes: scFv domain of a CAR expressed on JNL cells; also called CD22-58
B7: CAR22-62 (scFv)
scFv: EVQLQQSGPGLVKPSQTLSLTCAISGDSVLSNSDTWNWIRQSPSRGLEWLGRTYHRSTWYDDYASSVRGRVSINVDTSKNQYSLQLNAVTPEDTGVYYCARDRLQDGNSWSDAFDVWGQGTMVTVSSGGGGSGGGGSGGGGSQSALTQPASVSGSPGQSITISCTGTSSDVGGYNYVSWYQQHPGKAPKLMIYDVSNRPSGVSNRFSGSKSGNTASLTISGLQAEDEADYYCSSYTSSSTLYVFGTGTKVTVLG
notes: scFv domain of a CAR expressed on JNL cells; also called CD22-62
B8: CAR22-63 (scFv)
scFv: EVQLQQSGPGLVKPSQTLSLTCAISGDSVLSNSDTWNWIRQSPSRGLEWLGRTYHRSTWYDDYASSVRGRVSINVDTSKNQYSLQLNAVTPEDTGVYYCARDRLQDGNSWSDAFDVWGQGTMVTVSSGGGGSGGGGSGGGGSQSALTQPASVSGSPGQSITISCTGTSSDVGGYNYVSWYQQHPGKAPKLMIYEVSNRPSGVSNRFSGSKSGNTASLTISGLQAEDEADYYCSSYTSSSTLYIFGTGTKVTVLG
notes: scFv domain of a CAR expressed on JNL cells; also called CD22-63
B9: CAR22-59 (scFv)
scFv: EVQLQQSGPGLVKPSQTLSLTCAISGDSVLSNSDTWNWIRQSPSRGLEWLGRTYHRSTWYDDYASSVRGRVSINVDTSKNQYSLQLNAVTPEDTGVYYCARDRLQDGNSWSDAFDVWGQGTMVTVSSGGGGSGGGGSGGGGSQSALTQPASVSGSPGQSITISCTGSSSDIGGFNYVSWYQQHAGEAPKLMIYEVTNRPSGVSDRFSGSKSDNTASLTISGLQAEDEADYYCSSYASGSPLYVFGTGTKVTVLG
notes: scFv domain of a CAR expressed on JNL cells; also called CD22-59
B10: CAR22-61 (scFv)
scFv: QVQLQESGPGLVKPSQTLSLTCAISGDSVLSNSDTWNWIRQSPSRGLEWLGRTYHRSTWYDDYASSVRGRVSINVDTSKNQYSLQLNAVTPEDTGVYYCARDRLQDGNSWSDAFDVWGQGTMVTVSSGGGGSGGGGSGSGGSQSALTQPASVSGSPGQSITISCTGTSSDVGGYNYVSWYQQHPGKAPKLMIYEVSNRPSGVSNRFSGSKSGNTASLTISGLQAEDEADYYCSSYTSSSTLYVFGTGTKVTVLG
notes: scFv domain of a CAR expressed on JNL cells; also called CD22-61
B11: CAR22-60 (scFv)
scFv: EVQLQQSGPGLVKPSQTLSLTCAISGDSVLSNSDTWNWIRQSPSRGLEWLGRTYHRSTWYDDYASSVRGRVSINVDTSKNQYSLQLNAVTPEDTGVYYCARDRLQDGNSWSDAFDVWGQGTMVTVSSGGGGSGGGGSGSGGSQSALTQPASVSGSPGQSITFSCTGTSSDIGGYNYVSWYQQHPGKAPKLMIYEVSNRPSGVSNRFSGTKSGNTASLTISGLQAEDEADYYCSSYTSSSTLYVFGTGTKLTVLG
notes: scFv domain of a CAR expressed on JNL cells; also called CD22-60
B12: CAR22-12 (scFv)
scFv: EVQLQQSGPGLVKPSQTLSLTCAISGDSVLSNSDTWNWIRQSPSRGLEWLGRTYHRSTWYDDYASSVRGRVSINVDTSKNQYSLQLNAVTPEDTGVYYCARDRLQDGNSWSDAFDVWGQGTMVTVSSGGGGSGGGGSGGGGSQSALTQPASASGSPGQSVTISCTGTSSDVGGYNYVSWYQQHPGKAPKLMIYDVSNRPSGVSNRFSGSKSGNTASLTISGLQAEDEADYYCSSYTSSSTLYVFGTGTQLTVL
notes: scFv domain of a CAR on T cells or JNL cells; also called CD22 CAR clone 12; hCD22-12
B13: CAR22-53 (scFv)
scFv: EVQLQQSGPGLVKPSQTLSLTCAISGDSVSSNSAAWNWIRQSPSRGLEWLGRTYYRSKWYSDYAVSVKSRITINPDTSKNQFSLQLNSVTPEDTAVYYCARDPYDFWSGYPDAFDIWGQGTMVTVSSGGGGSGGGGSGGGGSQSALTQPASVSGSPGQSITISCTGTSSDVGGYNYVSWYQQHPGKAPKVIISEVNNRPSGVSHRFSGSKSGNTASLTISGLQAEDEADYFCSSYTSGRTLYVFGTGSKVTVLG
notes: scFv domain of a CAR on JNL cells or T cells; also called CD22-53; hCD22-53

The source of these data is US20160362472A1 (published 2016).

For one test, the target named is CD123 on target cells (MOLM14, MOLM13, primary B-ALL blasts) (human), P26951. Kind of test: cell-based or functional assay.
Chain of CD123 on target cells (MOLM14, MOLM13, primary B-ALL blasts) (human), P26951 (P26951 19-378): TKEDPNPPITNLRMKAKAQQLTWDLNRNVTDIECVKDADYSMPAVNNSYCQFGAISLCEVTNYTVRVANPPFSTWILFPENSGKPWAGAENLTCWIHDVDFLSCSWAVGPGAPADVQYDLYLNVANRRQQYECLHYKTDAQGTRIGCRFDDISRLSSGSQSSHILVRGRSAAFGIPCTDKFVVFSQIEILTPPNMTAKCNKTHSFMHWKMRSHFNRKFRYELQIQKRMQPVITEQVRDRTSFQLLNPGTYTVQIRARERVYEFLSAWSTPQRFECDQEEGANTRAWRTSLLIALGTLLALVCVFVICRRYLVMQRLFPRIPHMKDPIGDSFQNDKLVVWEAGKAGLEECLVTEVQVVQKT
Turning to B1, the CD107a degranulation, 2-hr in vitro assay amounted to 80%.
Still for that read-out and setting: under B2 stands 80%.

The next test deals with T1, CD22-FL-Fc (UniProt P20273 20-687).
T1 construct: domain: full-length with all 7 external domains; also called CD22 full length-Fc; CD22 full-length with all 7 external domains; not shown: Fc part not described
Nature of the test: NFAT-luciferase activation of CAR JNL cells on plates coated with CD22 full length-Fc, CD22 D567-Fc or Fc only. Here is the method:
(§1) Briefly the experiments were performed as follows. A lentiviral vector (pELPS) carrying a nucleic acid, encoding a CD22 CAR with a CD22-binding scFv domain was introduced by electroporation into a Jurkat T cell line modified to express luciferase under the control of an NFAT response element (JNL). The cells were cultured and allowed to express the CAR construct. The electroporated cells were applied to a plate coated with the target antigen (CD22). Detection of luciferase signal in the coated plate was indicative of binding activity of the CD22 CAR to its antigen, leading to activation of the T cells and expression of luciferase.
CAR constructs containing these scFvs were tested for activity in an NFAT assay as described above. […] The bars in the figure represent, from left to right, CD22 full length-Fc; CD22 D567-Fc; and an Fc only negative control used for coating of the plates.
Regarding B3, the binding result is “binds”.
Still for that read-out and setting: with B4 the entry was “binds”.

The target of the next test is T1, CD22-FL-Fc. Nature of the test: NFAT-luciferase activation of CAR JNL cells on plates coated with CD22-FL-Fc, CD22-D567-Fc or CD22-D67. Here is the method: as §1
Three different target proteins (CD22-FL-Fc, CD22-D567-Fc, and CD22-D67) were used to coat the tissue culture plates; a negative control (Fc) was also included. A mesothelin binding CAR (Meso-G07) was used as a negative control. […] Domain mapping was performed on CD22 binding domains. Three different forms of antigens were used: CD22 full-length with all 7 external domains, Domain567 (in which domains 1-4 were deleted) and Domain67 (in which domains 1-5 were deleted).
Consider B5, for which the binding result is listed as “binds”.
As to B6, the binding result is “binds”.
The same measure, in the same setting: with B7 the entry was “binds”; with B8, “binds”.
As for B9, the binding result is listed as “binds”.
Same read-out and setting: under B10 stands “binds”.
Same read-out and setting: under B11 stands “binds”; under B12, “binds”.
As for B13, the binding result is “binds”.
